Data as given in patent US20210340548A1.

B1: rTetR (I194T, V16 mutation, 1-206)-CIB1 (-NLS) from the T2A construct (protein, part only; not given: Leftover T2A residues, part only)
chain, part: MARLDKSKIINSALELLNGVGIEGLTTRKLAQKLGVEQPTLYWHVKNKRALLDALPIEMLDRHHTHSCPLEGESWQDFLRNNAKSYRCALLSHRDGAKVHLGTRPTEKQYETLENQLAFLCQQGFSLENALYALSAVGHFTLGCVLEEQEHQVAKEERETPTTDSMPPLLKQAIELFDRQGAEPAFLFGLELITCGLEKQLKCESGSPKKKHMEFNGAIGGDLLLNFPDMSVLERQRAHLKYLNPTFDSPLAGFFADSSMITGGEMDSYLSTAGLNLPMMYGETTVEGDSRLSISPETTLGTGNFKAAKFDTETKDCNEAAKKMTMNRDDLVEEGEEEKSKITEQNNGSTKSIKKMKHKAKKEENNFSNDSSKVTKELEKTDYI
B2: rTetR (I194T, V10 mutation, 1-206)-CIB1 (-NLS) from the T2A construct (protein, part only; not given: Leftover T2A residues, part only)
chain, part: MARLDKSKVINSALELLNGVGIEGLTTRKLAQKLGVEQPTLYWHVKNKRALLDALPIEMLDRHHTHSCPLEGESWQDFLRNNAKSYRCALLSHRDGAKVHLGTRPTEKQYETLENQLAFLCQQGFSLENALYALSAVGHFTLGCVLEEQEHQVAKEERETPTTDSMPPLLKQAIELFDRQGAEPAFLFGLELITCGLEKQLKCESGSPKKKHMEFNGAIGGDLLLNFPDMSVLERQRAHLKYLNPTFDSPLAGFFADSSMITGGEMDSYLSTAGLNLPMMYGETTVEGDSRLSISPETTLGTGNFKAAKFDTETKDCNEAAKKMTMNRDDLVEEGEEEKSKITEQNNGSTKSIKKMKHKAKKEENNFSNDSSKVTKELEKTDYI
B3: rTetR (I194T, M2 mutation, 1-206)-CIB1 (-NLS) from the T2A construct (protein, part only; not given: Leftover T2A residues, part only)
chain, part: MARLDKSKVINGALELLNGVGIEGLTTRKLAQKLGVEQPTLYWHVKNKRALLDALPIEMLDRHHTHFCPLEGESWQDFLRNNAKSFRCALLSHRDGAKVHLGTRPTEKQYETLENQLAFLCQQGFSLENALYALSAVGHFTLGCVLEEQEHQVAKEERETPTTDSMPPLLRQAIELFDRQGAEPAFLFGLELITCGLEKQLKCESGSPKKKHMEFNGAIGGDLLLNFPDMSVLERQRAHLKYLNPTFDSPLAGFFADSSMITGGEMDSYLSTAGLNLPMMYGETTVEGDSRLSISPETTLGTGNFKAAKFDTETKDCNEAAKKMTMNRDDLVEEGEEEKSKITEQNNGSTKSIKKMKHKAKKEENNFSNDSSKVTKELEKTDYI
B4: TetR (I194T, H100Y, 1-206)-CIB1 (-NLS) from the T2A construct (protein, part only)
chain: MARLDKSKVINSALELLNEVGIEGLTTRKLAQKLGVEQPTLYWHVKNKRALLDALAIEMLDRHHTHFCPLEGESWQDFLRNNAKSFRCALLSHRDGAKVYLGTRPTEKQYETLENQLAFLCQQGFSLENALYALSAVGHFTLGCVLEDQEHQVAKEERETPTTDSMPPLLRQAIELFDHQGAEPAFLFGLELITCGLEKQLKCESGSPKKKHMEFNGAIGGDLLLNFPDMSVLERQRAHLKYLNPTFDSPLAGFFADSSMITGGEMDSYLSTAGLNLPMMYGETTVEGDSRLSISPETTLGTGNFKAAKFDTETKDCNEAAKKMTMNRDDLVEEGEEEKSKITEQNNGSTKSIKKMKHKAKKEENNFSNDSSKVTKELEKTDYI
modifications: T2A residues at C-terminus

biological target: Cry2 PHR (L348F)-p65AD-NLSx2 fusion construct as released from the TetR (I194T, 1-206)-CIB1 (-NLS)-T2A-Cry2 PHR (L348F)-p65AD-NLSx2 fusion construct; experiment: cell-based or functional assay
Sequence (Q96524 other isoform, or with tags, fused parts or gaps L348F I194T L348F L348F I194T L348F): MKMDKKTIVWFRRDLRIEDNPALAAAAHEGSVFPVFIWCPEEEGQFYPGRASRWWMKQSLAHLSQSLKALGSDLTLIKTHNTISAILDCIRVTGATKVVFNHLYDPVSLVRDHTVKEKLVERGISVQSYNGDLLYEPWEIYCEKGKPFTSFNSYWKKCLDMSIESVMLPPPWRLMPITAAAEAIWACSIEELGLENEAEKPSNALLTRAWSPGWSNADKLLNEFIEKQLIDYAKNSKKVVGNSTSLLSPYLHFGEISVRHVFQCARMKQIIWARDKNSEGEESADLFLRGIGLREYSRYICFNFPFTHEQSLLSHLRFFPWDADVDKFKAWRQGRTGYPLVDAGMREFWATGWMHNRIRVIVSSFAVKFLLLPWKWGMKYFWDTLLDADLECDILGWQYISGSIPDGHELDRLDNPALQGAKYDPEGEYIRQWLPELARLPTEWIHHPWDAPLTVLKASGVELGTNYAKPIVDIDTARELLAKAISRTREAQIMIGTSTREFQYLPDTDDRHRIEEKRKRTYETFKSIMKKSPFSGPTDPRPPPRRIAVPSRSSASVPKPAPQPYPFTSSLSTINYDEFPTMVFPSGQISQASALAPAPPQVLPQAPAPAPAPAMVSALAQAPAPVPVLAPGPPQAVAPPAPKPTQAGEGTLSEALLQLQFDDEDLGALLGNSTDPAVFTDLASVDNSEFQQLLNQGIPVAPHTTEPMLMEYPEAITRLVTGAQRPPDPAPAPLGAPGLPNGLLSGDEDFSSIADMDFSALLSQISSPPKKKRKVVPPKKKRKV

First: B1
Second: B2
The Average of the Light/Dark ratio, Dox 0 ng/mL of the first is higher: 1.5 for the first, 1.3 for the second.

Going from B3 to B4, the Average of the Light/Dark ratio, Dox 0 ng/mL rises from 1.4 to 19.

Going from B1 to B2, the Average of the Light/Dark ratio, Dox 75 ng/mL rises from 15.8 to 32.8.

Going from B3 to B4, the Average of the Light/Dark ratio, Dox 75 ng/mL falls from 31.6 to 19.4.

Compared with B1, B2 is lower in Light/Dark, Dox 0 ng/mL: 1.6 for the first, 1.1 for the second.

First: B3
Second: B4
The Light/Dark, Dox 0 ng/mL of the first is lower: 1.1 for the first, 30.6 for the second.

First: B1
Second: B2
The Light/Dark, Dox 75 ng/mL of the first is lower: 26.4 for the first, 42.7 for the second.

Going from B3 to B4, the Light/Dark, Dox 75 ng/mL falls from 38.4 to 22.7.

B1 and B2 are the same in Ub-ELuc luciferase, Dark, Dox 0 ng/mL: 0.2 relative for the first, 0.2 relative for the second.

Compared with B3, B4 is higher in Ub-ELuc luciferase, Dark, Dox 0 ng/mL: 0.3 relative for the first, 2.6 relative for the second.

Compared with B1, B2 is lower in Ub-ELuc luciferase, Dark, Dox 75 ng/mL: 5.9 relative for the first, 1.2 relative for the second.

Compared with B3, B4 is higher in Ub-ELuc luciferase, Dark, Dox 75 ng/mL: 0.3 relative for the first, 3.1 relative for the second.

Compared with B1, B2 is lower in Ub-ELuc luciferase, Light, Dox 0 ng/mL: 0.3 relative for the first, 0.2 relative for the second.

Going from B3 to B4, the Ub-ELuc luciferase, Light, Dox 0 ng/mL rises from 0.3 relative to 58.1 relative.

Going from B1 to B2, the Ub-ELuc luciferase, Light, Dox 75 ng/mL falls from 76.7 relative to 51.7 relative.

First: B3
Second: B4
The Ub-ELuc luciferase, Light, Dox 75 ng/mL of the first is lower: 12.7 relative for the first, 41.4 relative for the second.

With B2 the Average of the Light/Dark ratio, Dox 0 ng/mL, 36 h light was 9.6.

B2 gave an Average of the Light/Dark ratio, Dox 500 ng/mL, 36 h light of 959.

B2 gave a Light/Dark, Dox 0 ng/mL, 36 h light of 9.2.

With B2 the Light/Dark, Dox 500 ng/mL, 36 h light was 412.

B2 was tested, and the Ub-ELuc luciferase, Dark, Dox 0 ng/mL, 36 h light was 3.6 relative.

In the case of B2, the Ub-ELuc luciferase, Dark, Dox 500 ng/mL, 36 h light is reported as 22.8 relative.

B2 gave a Ub-ELuc luciferase, Light, Dox 0 ng/mL, 36 h light of 25.3 relative.

Work on B2 yielded a Ub-ELuc luciferase, Light, Dox 500 ng/mL, 36 h light of 9140 relative.
